# T1: yArgRS (yeast cytoplasmic arginyl-tRNA synthetase) (Saccharomyces cerevisiae, UniProt Q05506 1-607)
# T1 sequence: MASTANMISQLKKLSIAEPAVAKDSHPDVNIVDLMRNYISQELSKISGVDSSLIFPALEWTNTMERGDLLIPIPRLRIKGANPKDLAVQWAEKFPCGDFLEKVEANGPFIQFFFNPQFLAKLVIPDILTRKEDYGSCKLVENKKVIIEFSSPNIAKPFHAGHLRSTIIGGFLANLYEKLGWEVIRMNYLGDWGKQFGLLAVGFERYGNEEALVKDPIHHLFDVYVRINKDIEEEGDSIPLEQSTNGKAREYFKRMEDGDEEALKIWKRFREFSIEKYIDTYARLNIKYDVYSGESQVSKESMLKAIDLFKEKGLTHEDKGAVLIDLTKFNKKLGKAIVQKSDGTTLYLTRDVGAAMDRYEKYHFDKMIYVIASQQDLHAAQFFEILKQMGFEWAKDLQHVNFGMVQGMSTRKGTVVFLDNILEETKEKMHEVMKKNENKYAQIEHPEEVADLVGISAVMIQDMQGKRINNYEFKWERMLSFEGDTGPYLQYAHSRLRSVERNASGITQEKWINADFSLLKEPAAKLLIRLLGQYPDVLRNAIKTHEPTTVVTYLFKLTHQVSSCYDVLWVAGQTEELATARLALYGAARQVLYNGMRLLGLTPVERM
# Columns and labels:
# [1] = molecular target: T1, yArgRS (yeast cytoplasmic arginyl-tRNA …); test: EMSA + tRNA microarray (MIST); total tRNA competition, 10 mM Mg2+; strong affinity; 25 mM Tris-HCl pH 7.5, 75 mM KCl, 10 mM MgCl2, 25% glycerol; 15 min at room temperature (Fig 1 legend: on ice); native 6% PAGE at room temperature; conditions: protein: recombinant; tags: none (tag-free native recombinant, E. coli TB1, pTrc99B); label: 5'-32P; tRNA cloverleaf, long variable loop (class 2)
# [2] = molecular target: T1, yArgRS (yeast cytoplasmic arginyl-tRNA …); test: EMSA + tRNA microarray (MIST); 0.8 uM yArgRS, total tRNA competition, 10 mM Mg2+; 25 mM Tris-HCl pH 7.5, 75 mM KCl, 10 mM MgCl2, 25% glycerol; 15 min at room temperature (Fig 1 legend: on ice); native 6% PAGE at room temperature; conditions: protein: recombinant, tags: none (tag-free native recombinant, E. coli TB1, pTrc99B), label: 5'-32P, tRNA cloverleaf
# [3] = molecular target: T1, yArgRS (yeast cytoplasmic arginyl-tRNA …); test: EMSA + tRNA microarray (MIST); total tRNA competition, 10 mM Mg2+; highest among tRNA Arg; 25 mM Tris-HCl pH 7.5, 75 mM KCl, 10 mM MgCl2, 25% glycerol; 15 min at room temperature (Fig 1 legend: on ice); native 6% PAGE at room temperature; conditions: protein: recombinant; tags: none (tag-free native recombinant, E. coli TB1, pTrc99B); label: 5'-32P; tRNA cloverleaf
# [4] = molecular target: T1, yArgRS (yeast cytoplasmic arginyl-tRNA …); test: EMSA; 0.5 uM yArgRS, single tRNA, 10 mM Mg2+; 25 mM Tris-HCl pH 7.5, 75 mM KCl, 10 mM MgCl2, 25% glycerol; 15 min at room temperature (Fig 1 legend: on ice); native 6% PAGE at room temperature; conditions: protein: recombinant, tags: none (tag-free native recombinant, E. coli TB1, pTrc99B), label: 32P, tRNA cloverleaf
# [5] = molecular target: T1, yArgRS (yeast cytoplasmic arginyl-tRNA …); test: EMSA + tRNA microarray (MIST); total tRNA competition, 10 mM Mg2+; 25 mM Tris-HCl pH 7.5, 75 mM KCl, 10 mM MgCl2, 25% glycerol; 15 min at room temperature (Fig 1 legend: on ice); native 6% PAGE at room temperature; conditions: protein: recombinant; tags: none (tag-free native recombinant, E. coli TB1, pTrc99B); label: 5'-32P; tRNA cloverleaf
binder,measurement,setting,value
"native tRNA Leu (UAA) (structured_RNA, native post-transcriptional modifications (not specified)) RNA: GGAGGGUUGGCCGAGUGGUCUAAGGCGGCAGACUUAAGAUCUGUUGGACGGUUGUCCGCGCGAGUUCGAACCUCGCAUCCUUCA",binding result,[1],binds
"native tRNA Arg (CCU) (structured_RNA, native post-transcriptional modifications (not specified)) RNA: GUUCCGUUGGCGUAAUGGUAACGCGUCUCCCUCCUAAGGAGAAGACUGCGGGUUCGAGUCCCGUACGGAACG",binding signal,[2],< 0.3 fold enrichment vs input
"native tRNA Gly (TCC) (structured_RNA, native post-transcriptional modifications (not specified)) RNA: GGGCGGUUAGUGUAGUGGUUAUCAUCCCACCCUUCCAAGGUGGGGACACGGGUUCGAUUCUCGUACCGCUCA",binding signal,[2],< 0.3 fold enrichment vs input
"native tRNA Ile (GAT) (structured_RNA, native post-transcriptional modifications (not specified)) RNA: GAAACUAUAAUUCAAUUGGUUAGAAUAGUAUUUUGAUAAGGUACAAAUAUAGGUUCAAUCCCUGUUAGUUUCA",binding signal,[2],< 0.3 fold enrichment vs input
"native tRNA Arg (UCU) (structured_RNA, native post-transcriptional modifications (not specified)) RNA: GCUCGCGUGGCGUAAUGGCAACGCGUCUGACUUCUAAUCAGAAGAUUAUGGGUUCGACCCCCAUCGUGAGUG",binding result,[3],binds
"tRNA Asp (GUC) transcript (structured_RNA, none (unmodified transcript)) RNA: UCCGUGAUAGUUUAAUGGUCAGAAUGGGCGCUUGUCGCGUGCCAGAUCGGGGUUCAAUUCCCCGUCGCGGAG",binding signal,[4],35 % complexed
"native tRNA Ser (AGA) (structured_RNA, native post-transcriptional modifications (not specified)) RNA: GGCAACUUGGCCGAGUGGUUAAGGCGAAAGAUUAGAAAUCUUUUGGGCUUUGCCCGCGCAGGUUCGAGUCCUGCAGUUGUCG",binding signal,[2]; long variable loop (class 2),> 3 fold enrichment vs input
"native tRNA Gly (GCC) (structured_RNA, native post-transcriptional modifications (not specified)) RNA: GCGCAAGUGGUUUAGUGGUAAAAUCCAACGUUGCCAUCGUUGGGCCCCCGGUUCGAUUCCGGGCUUGCGCA",binding signal,[5],4.5 fold lower apparent affinity than tRNA Leu (GAG)
"tRNA Leu (GAG) transcript (structured_RNA, none (unmodified transcript)) RNA: GGUACUCUGGCCGAGUGGUCUAAGGCGUCAGGUCGAGGUCCUGAUCUCUUCGGAGGCGCGGGUUCAAACCCCGCGGGUAUCA",binding signal,[4]; long variable loop (class 2),> 60 % complexed
"native tRNA Leu (GAG) (structured_RNA, native post-transcriptional modifications (not specified)) RNA: GGUACUCUGGCCGAGUGGUCUAAGGCGUCAGGUCGAGGUCCUGAUCUCUUCGGAGGCGCGGGUUCAAACCCCGCGGGUAUCA",binding signal,[2]; long variable loop (class 2),> 3 fold enrichment vs input
"tRNA Pro (AGG) transcript (structured_RNA, none (unmodified transcript)) RNA: GGGCGUGUGGUCUAGAGGUAUGAUUCUCGCUUAGGGUGCGGGAGGUCCCGGGUUCGAGUCCCGGCUCGCCCC",binding signal,[4],19 % complexed
"native tRNA Pro (AGG) (structured_RNA, native post-transcriptional modifications (not specified)) RNA: GGGCGUGUGGUCUAGAGGUAUGAUUCUCGCUUAGGGUGCGGGAGGUCCCGGGUUCGAGUCCCGGCUCGCCCC",binding signal,[2],< 0.3 fold enrichment vs input
